Results taken from paper PMC3174212, “A Negative Feedback Loop That Limits the Ectopic Activation of a Cell Type–Specific Sporulation Sigma Factor of Bacillus subtilis” (PLoS Genetics, 2011).
Changes are numbered by the printed parent chain. Each block holds one binder with its values, some of them ahead of it.

Assays:
GST-σ^GN45A [1] = biological target: T1, GST-σ^GN45A (Bacillus subtilis, UniProt P19940 1-260, N45A); assay: pull-down; GST or GST-σ^G fusions on glutathione Sepharose beads; 100 nM purified CsfB-Strep II tag; 30 min at room temperature; washed three times in 200 mM NaCl, 10 mM Tris-HCl pH 8.0, 10% glycerol; immunoblot with anti-Strep II tag; densitometry, average of three experiments; conditions: both partners purified
T1 construct: RNA polymerase sigma-G factor of Bacillus subtilis; coding region of sigGN45A amplified from pJS4 and cloned into pGex4T-3; not shown: GST, N-terminal, kept
T1 sequence (looked up): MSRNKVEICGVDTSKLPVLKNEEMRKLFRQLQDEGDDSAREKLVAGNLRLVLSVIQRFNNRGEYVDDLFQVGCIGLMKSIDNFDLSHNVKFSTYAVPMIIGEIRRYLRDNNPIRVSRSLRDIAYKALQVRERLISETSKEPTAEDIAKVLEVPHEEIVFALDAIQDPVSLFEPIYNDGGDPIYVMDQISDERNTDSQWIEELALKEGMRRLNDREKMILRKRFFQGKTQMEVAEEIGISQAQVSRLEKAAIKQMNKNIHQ

GST-σ^G = biological target: T2, GST-σ^G (Bacillus subtilis, UniProt P19940 1-260); assay: as above; conditions: both partners purified
T2 construct: RNA polymerase sigma-G factor of Bacillus subtilis; coding region of sigG amplified with primers sigG2016D and sigG2964R from pMS45 and cloned into pGex4T-3; also called GST-σ^Gwt; GST-σ^G fusion protein (wt); not shown: GST, N-terminal, kept
T2 sequence (looked up): T1 sequence (looked up) with A45N

[2] = biological target: GST-σ^GN45E (Bacillus subtilis) (UniProt P19940); assay: as above
[3] = biological target: GST-σ^GN45E (Bacillus subtilis) (UniProt P19940); assay: pull-down; GST or GST-σ^G fusions on glutathione Sepharose beads; soluble extract of B. subtilis AH6608 (CsfB-GFP) 2 h after the onset of sporulation; 30 min at room temperature; washed three times in 200 mM NaCl, 10 mM Tris-HCl pH 8.0, 10% glycerol; immunoblot with anti-GFP and anti-SpoIIAB; densitometry, average of three experiments
GST-σ^GN45A [4] = biological target: T1, GST-σ^GN45A; assay: as above; conditions: one partner purified

- efficiency of the pull-down relative to the wild type (GST-σ^GN45A [1]): ~0.6 × the efficiency of the wild type
- binding result (GST-σ^G): binds
- efficiency of the pull-down relative to the wild type (× of the wild type) [2]: 0.2
B1: CsfB-Strep II tag (natural protein, Bacillus subtilis, UniProt P37534 1-64, looked up)
chain: MDETVKLNHTCVICDQEKNRGIHLYTKFICLDCERKVISTSTSDPDYAFYVKKLKSIHTPPLYS
notes: anti-sigma-G factor CsfB (Gin) of Bacillus subtilis; coding region of csfB amplified with primers csfB191D and csfBstrepR (which carries the Strep II tag) and cloned between NcoI and BamHI of pET16b; also called CsfB-Strep II-tagged protein; purified CsfB; source: E. coli BL21(DE3) grown in LB, purified (Strep-Tactin Sepharose); not shown: Strep II tag, C-terminal, kept

- efficiency of the pull-down relative to the wild type (× of the wild type) [3]: 0.4
- efficiency of the pull-down relative to the wild type (GST-σ^GN45A [4]): 0.7 × of the wild type
B2: CsfB-GFP fusion (natural protein, Bacillus subtilis, UniProt P37534 1-64, looked up)
chain: B1 chain
notes: anti-sigma-G factor CsfB (Gin) of Bacillus subtilis, functional fusion to GFP; The construction of the csfB-gfp fusion stands in Text S1; source: B. subtilis AH6608 (csfB::km ΔsigG ΔamyE::csfB-gfp), soluble extract 2 h after the onset of sporulation in DSM
